Data from PMC11482615, “Novel Peptides LFLLP and DFFL from Jack Bean Protein Hydrolysates Suppress the Inflammatory Response in Lipopolysaccharide-Stimulated RAW 264.7 Cells” (Foods, 2024).
Residues, ends and D or L forms follow the SMILES beside them. *: point of attachment. FITC = O=C1OC2(c3ccc(O)cc3Oc3cc(O)ccc32)c2ccc(NC(=S)*)cc21

Test system: RAW 264.7 cells
Experiment: Visualization of FITC-conjugated peptides in RAW 264.7 cells (fluorescence microscopy)
Format: cell-based, mouse
Conditions: 200 μmol/L FITC-conjugated peptide, 24 h; for incorporation into RAW 264.7 cells (fluorescence signal): intensity of the two peptides roughly comparable; for cellular localization in RAW 264.7 cells: non-colocalization with DAPI
Experimental: To visualize the cellular localization of peptides, LFLLP and DFFL were conjugated with fluorescein isothiocyanate isomer-I (FITC-I, Dojindo). Briefly, the LFLLP and DFFL were mixed with FITC-I in a carbonate buffer at pH 9.5 for 2 h. To purify the FITC-conjugated peptides, the mixture was applied to a Sep-Pak C18 cartridge. RAW 264.7 cells were seeded in a 6-well plate (0.5 × 10^4 cells/cm^2). After 3 days, the cells were incubated with FITC-conjugated peptides (LFLLP and DFFL, 200 µmol/L) for 24 h. The cells were then washed with cold PBS and fixed with 4% PFA for 10 min. Lastly, the cells were washed three times with PBS and mounted on microscope slides using a mounting fluid containing DAPI, and the fluorescence signals were visualized using a Leica DMI6000 B fluorescence microscope (Leica).

SMILES	incorporation into RAW 264.7 cells (fluorescence signal)	cellular localization in RAW 264.7 cells
CC(C)C[C@H](NC(=O)[C@H](Cc1ccccc1)NC(=O)[C@H](Cc1ccccc1)NC(=O)[C@H](CC(=O)O)NC(=S)Nc1ccc2c(c1)C(=O)OC21c2ccc(O)cc2Oc2cc(O)ccc21)C(=O)O [FITC-conjugated DFFL] ({FITC}-DFFL-OH)	observed in most cells	predominantly localized in the cytosols
CC(C)C[C@H](NC(=O)[C@H](Cc1ccccc1)NC(=O)[C@H](CC(C)C)NC(=S)Nc1ccc2c(c1)C(=O)OC21c2ccc(O)cc2Oc2cc(O)ccc21)C(=O)N[C@@H](CC(C)C)C(=O)N1CCC[C@H]1C(=O)O [FITC-conjugated LFLLP] ({FITC}-LFLLP-OH)	observed in most cells	predominantly localized in the cytosols
